We go through one molecule from publication PMC2811759 (Biochemistry, 2010).

This assay addresses T1, Xeroderma Pigmentosum group C (XPC) (human, UniProt Q01831 1-940).
T1 sequence (looked up): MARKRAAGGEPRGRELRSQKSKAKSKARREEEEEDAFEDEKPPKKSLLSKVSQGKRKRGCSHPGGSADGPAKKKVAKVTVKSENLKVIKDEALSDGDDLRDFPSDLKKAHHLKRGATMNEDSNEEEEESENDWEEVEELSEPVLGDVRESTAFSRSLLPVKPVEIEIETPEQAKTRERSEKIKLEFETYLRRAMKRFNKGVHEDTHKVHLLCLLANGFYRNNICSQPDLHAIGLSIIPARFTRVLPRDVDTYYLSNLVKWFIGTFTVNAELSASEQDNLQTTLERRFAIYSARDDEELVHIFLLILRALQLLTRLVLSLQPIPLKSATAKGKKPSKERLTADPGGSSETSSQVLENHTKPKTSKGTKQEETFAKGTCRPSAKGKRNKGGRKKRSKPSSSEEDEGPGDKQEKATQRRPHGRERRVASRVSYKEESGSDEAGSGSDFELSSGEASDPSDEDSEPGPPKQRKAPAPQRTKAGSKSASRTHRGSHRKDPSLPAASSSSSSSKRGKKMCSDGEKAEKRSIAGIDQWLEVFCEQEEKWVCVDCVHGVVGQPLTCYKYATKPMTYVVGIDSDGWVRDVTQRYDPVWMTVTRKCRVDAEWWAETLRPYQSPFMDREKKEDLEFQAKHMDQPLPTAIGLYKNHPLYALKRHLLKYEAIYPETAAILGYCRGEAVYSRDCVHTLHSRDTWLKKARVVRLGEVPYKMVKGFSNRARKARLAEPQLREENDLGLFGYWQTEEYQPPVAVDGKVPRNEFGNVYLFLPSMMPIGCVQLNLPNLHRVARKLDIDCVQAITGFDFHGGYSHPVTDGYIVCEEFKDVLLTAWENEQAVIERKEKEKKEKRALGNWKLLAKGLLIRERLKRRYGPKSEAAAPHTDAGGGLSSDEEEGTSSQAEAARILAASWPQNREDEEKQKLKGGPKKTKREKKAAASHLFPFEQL
The assay is described as follows: co-IP.

B1: Rad23B (natural protein, human, UniProt P54727 1-409, looked up)
chain: MQVTLKTLQQQTFKIDIDPEETVKALKEKIESEKGKDAFPVAGQKLIYAGKILNDDTALKEYKIDEKNFVVVMVTKPKAVSTPAPATTQQSAPASTTAVTSSTTTTVAQAPTPVPALAPTSTPASITPASATASSEPAPASAAKQEKPAEKPAETPVATSPTATDSTSGDSSRSNLFEDATSALVTGQSYENMVTEIMSMGYEREQVIAALRASFNNPDRAVEYLLMGIPGDRESQAVVDPPQAASTGAPQSSAVAAAAATTTATTTTTSSGGHPLEFLRNQPQFQQMRQIIQQNPSLLPALLQQIGRENPQLLQQISQHQEHFIQMLNEPVQEAGGQGGGGGGGSGGIAEAGSGHMNYIQVTPQEKEAIERLKALGFPEGLVIQAYFACEKNENLAANFLLQQNFDED
Turning to B1, the binding result was “binds”.
